Data taken from US20230277624A1 (ONCOSEC MEDICAL, published 2023).

How the values were obtained:
[1] = target: T1, Recombinant mouse CTLA-4/human IgG1 chimera (R&D Systems) (mouse; human, UniProt P09793 36-162, limits assumed); test: ELISA; mouse CTLA-4/human IgG1 chimera coated at 1 or 5 µg/mL, HEK293 conditioned medium (168 ng/mL), anti-mouse IgG-HRP, OD 450 nm
T1 construct: Bought reagent, immobilised in 96-well plates; also called recombinant mCTLA-4/Fc; recombinant CTLA4 protein; not shown: human IgG1 portion (Fc) of the bought chimera
Procedure: (§1) Plasmid encoded anti-CTLA4 scFv bound to recombinant CTLA4 protein. Transfection-derived secreted anti-CTLA4 (scFv) were evaluated for their binding capacity to CTLA-4. Recombinant mouse CTLA-4/human IgG1 chimera (R&D Systems) were immobilized in 96-well plates (1 or 5 μg/mL, or […]) for 18 hr at room temperature. Wells were washed three times with 0.1% Tween in PBS and blocked with 1% BSA in PBS. Conditioned medium from HEK293 cells transfected with 9H10-scFv (168 ng/mL) or 9D9-scFv (130 ng/mL) was added to the wells, and incubated for 2 h at room temperature. Wells were washed three times, and anti-mouse IgG-horseradish peroxidase (Jackson ImmunoResearch, 0.2 μg/mL) were added and incubated for 1.5 hours at room temperature. Wells were again washed three times, developed with HRP Substrate Reagent (R&D Systems) and stopped with Stop Solution, 2N sulfuric acid (R&D Systems). Optical density of each well was measured at 450 nm.

[2] = target: T1, Recombinant mouse CTLA-4/human IgG1 …; test: ELISA; mouse CTLA-4/human IgG1 chimera coated at 1 or 5 µg/mL, HEK293 conditioned medium (130 ng/mL), anti-mouse IgG-HRP, OD 450 nm
Procedure: as §1

binding result [1]	binding result [2]	Binder
binds		Igκ-HA-9H10 VLC-Linker-9H10 VHC-Linker-mIgG1 Fc domain (anti-CTLA-4 scFv) (Fc fusion, Secreted into the conditioned medium of transfected HEK293 cells (168 ng/mL) and used as such; also called 9H10-scFv; plasmid encoded anti-CTLA4 scFv) scFv: YPYDVPDYAGAQPARSDIVMTQSPSSLAVSVGEKVTISCKSSQSLLYGSSHYLAWYQQKVGQSPKLLIYWASTRHTGIPDRFIGSGSGTDFTLSLSSVQAEDMADYFCQQYFSTPWTFGAGTRVEIKSGSGGGSGGGSGGGSQVQLLQSESELVKPGASVKLSCKTSGYTFTDYYIHWVKQKPGQGLEWIGLINPNNDGTNYNQKFQGKATLTADKSSSTAYMELNSLTFDDSVIYFCARASSRLRMARTTSDYYAMDYWGQGIQVTVSSVDSSGSGGCKPCICTVPEVSSVFIFPPKPKDVLTITLTPKVTCVVVDISKDDPEVQFSWFVDDVEVHTAQTQPREEQFNSTFRSVSELPIMHQDWLNGKEFKCRVNSAAFPAPIEKTISKTKGRPKAPQVYTIPPPKEQMAKDKVSLTCMITDFFPEDITVEWQWNGQPAENYKNTQPIMDTDGSYFVYSKLNVQKSNWEAGNTFTCSVLHEGLHNHHTEKSLSHSPGK
	binds	Igκ-HA-9D9 VLC-Linker-9D9 VHC-Linker-mIgG1 Fc domain (anti-CTLA-4 scFv) (Fc fusion, Secreted into the conditioned medium of transfected HEK293 cells (130 ng/mL) and used as such; also called 9D9-scFv; plasmid encoded anti-CTLA4 scFv) scFv: YPYDVPDYAGAQPARSDIVMTQTTLSLPVSLGDQASISCRSSQSIVHSNGNTYLEWYLQKPGQSPKLLIYKVSNRFSGVPDRFSGSGSGTDFTLKISRVEAEDLGVYYCFQGSHVPYTFGGGTKLEIKRADAAPTVSGSGGGSGGGSGGGSEAKLQESGPVLVKPGASVKMSCKASGYTFTDYYMNWVKQSHGKSLEWIGVINPYNGDTSYNQKFKGKATLTVDKSSSTAYMELNSLTSEDSAVYYCARYYGSWFAYWGQGTLITVSTAKTTPPSVYPLAPVDSSGSGGCKPCICTVPEVSSVFIFPPKPKDVLTITLTPKVTCVVVDISKDDPEVQFSWFVDDVEVHTAQTQPREEQFNSTFRSVSELPIMHQDWLNGKEFKCRVNSAAFPAPIEKTISKTKGRPKAPQVYTIPPPKEQMAKDKVSLTCMITDFFPEDITVEWQWNGQPAENYKNTQPIMDTDGSYFVYSKLNVQKSNWEAGNTFTCSVLHEGLHNHHTEKSLSHSPGK
